# ± gives the uncertainty stated by the source.
# B1: KAT8 regulatory NSL complex subunit 2, residues 28 to 91; numbered along this chain, Q9H9L4 (parent)
# chain: CAFTHRPCSHPRLEGQEFCIKHILEDKNAPFKQCSYISTKNGKRCPNAAPKPEKKDGVSFCAEH
# Variants of: B1
# Assay: abundance fitness (aPCA) (normalised: wild type 0, dead -1); higher = more abundant; growth selection in yeast, the domain comes from the species named
# Details: Homo sapiens
row,Variant,abundance fitness
1,CAFTHRPCSHPRLEGQEFCIKHILNDKNAPFKQCSYISTKNGKRCPNAAPKPEKKDGVSFCAEH [E25N],-0.203 ± 0.1
2,CAFTHRPCSHPRLEGQEFCIKHILPDKNAPFKQCSYISTKNGKRCPNAAPKPEKKDGVSFCAEH [E25P],-0.356 ± 0.073
3,CAFTHRPCSHPRLEGQEFCIKHILRDKNAPFKQCSYISTKNGKRCPNAAPKPEKKDGVSFCAEH [E25R],-0.099 ± 0.053
4,CAFTHRPCSHPRLEGQEFCIKHILSDKNAPFKQCSYISTKNGKRCPNAAPKPEKKDGVSFCAEH [E25S],-0.111 ± 0.053
5,CAFTHRPCSHPRLEGQEFCIKHILTDKNAPFKQCSYISTKNGKRCPNAAPKPEKKDGVSFCAEH [E25T],-0.127 ± 0.063
6,CAFTHRPCSHPRLEGQEFCIKHILVDKNAPFKQCSYISTKNGKRCPNAAPKPEKKDGVSFCAEH [E25V],-0.069 ± 0.053
7,CAFTHRPCSHPRLEGQEFCIKHILWDKNAPFKQCSYISTKNGKRCPNAAPKPEKKDGVSFCAEH [E25W],-0.131 ± 0.097
8,CAFTHRPCSHPRLEGQEFCIKHILYDKNAPFKQCSYISTKNGKRCPNAAPKPEKKDGVSFCAEH [E25Y],-0.05 ± 0.09
9,CAFTHRPCSHPRLEGQEFCIKHILEAKNAPFKQCSYISTKNGKRCPNAAPKPEKKDGVSFCAEH [D26A],-0.084 ± 0.063
10,CAFTHRPCSHPRLEGQEFCIKHILECKNAPFKQCSYISTKNGKRCPNAAPKPEKKDGVSFCAEH [D26C],-0.097 ± 0.08
11,CAFTHRPCSHPRLEGQEFCIKHILEEKNAPFKQCSYISTKNGKRCPNAAPKPEKKDGVSFCAEH [D26E],-0.157 ± 0.098
12,CAFTHRPCSHPRLEGQEFCIKHILEFKNAPFKQCSYISTKNGKRCPNAAPKPEKKDGVSFCAEH [D26F],-0.245 ± 0.067
13,CAFTHRPCSHPRLEGQEFCIKHILEGKNAPFKQCSYISTKNGKRCPNAAPKPEKKDGVSFCAEH [D26G],-0.197 ± 0.064
14,CAFTHRPCSHPRLEGQEFCIKHILEIKNAPFKQCSYISTKNGKRCPNAAPKPEKKDGVSFCAEH [D26I],-0.072 ± 0.14
15,CAFTHRPCSHPRLEGQEFCIKHILEKKNAPFKQCSYISTKNGKRCPNAAPKPEKKDGVSFCAEH [D26K],-0.177 ± 0.09
16,CAFTHRPCSHPRLEGQEFCIKHILEMKNAPFKQCSYISTKNGKRCPNAAPKPEKKDGVSFCAEH [D26M],-0.195 ± 0.063
17,CAFTHRPCSHPRLEGQEFCIKHILENKNAPFKQCSYISTKNGKRCPNAAPKPEKKDGVSFCAEH [D26N],-0.081 ± 0.079
18,CAFTHRPCSHPRLEGQEFCIKHILEQKNAPFKQCSYISTKNGKRCPNAAPKPEKKDGVSFCAEH [D26Q],-0.18 ± 0.071
19,CAFTHRPCSHPRLEGQEFCIKHILERKNAPFKQCSYISTKNGKRCPNAAPKPEKKDGVSFCAEH [D26R],-0.175 ± 0.046
20,CAFTHRPCSHPRLEGQEFCIKHILESKNAPFKQCSYISTKNGKRCPNAAPKPEKKDGVSFCAEH [D26S],-0.117 ± 0.058
21,CAFTHRPCSHPRLEGQEFCIKHILETKNAPFKQCSYISTKNGKRCPNAAPKPEKKDGVSFCAEH [D26T],-0.069 ± 0.083

row,Variant,abundance fitness
1,CAFTHRPCSHPRLEGQEFCIKHILEVKNAPFKQCSYISTKNGKRCPNAAPKPEKKDGVSFCAEH [D26V],-0.16 ± 0.068
2,CAFTHRPCSHPRLEGQEFCIKHILEWKNAPFKQCSYISTKNGKRCPNAAPKPEKKDGVSFCAEH [D26W],-0.347 ± 0.067
3,CAFTHRPCSHPRLEGQEFCIKHILEYKNAPFKQCSYISTKNGKRCPNAAPKPEKKDGVSFCAEH [D26Y],-0.223 ± 0.097
4,CAFTHRPCSHPRLEGQEFCIKHILEDANAPFKQCSYISTKNGKRCPNAAPKPEKKDGVSFCAEH [K27A],-0.019 ± 0.089
5,CAFTHRPCSHPRLEGQEFCIKHILEDCNAPFKQCSYISTKNGKRCPNAAPKPEKKDGVSFCAEH [K27C],-0.194 ± 0.082
6,CAFTHRPCSHPRLEGQEFCIKHILEDDNAPFKQCSYISTKNGKRCPNAAPKPEKKDGVSFCAEH [K27D],-0.172 ± 0.097
7,CAFTHRPCSHPRLEGQEFCIKHILEDENAPFKQCSYISTKNGKRCPNAAPKPEKKDGVSFCAEH [K27E],-0.079 ± 0.074
8,CAFTHRPCSHPRLEGQEFCIKHILEDFNAPFKQCSYISTKNGKRCPNAAPKPEKKDGVSFCAEH [K27F],-0.3 ± 0.079
9,CAFTHRPCSHPRLEGQEFCIKHILEDGNAPFKQCSYISTKNGKRCPNAAPKPEKKDGVSFCAEH [K27G],-0.191 ± 0.068
10,CAFTHRPCSHPRLEGQEFCIKHILEDHNAPFKQCSYISTKNGKRCPNAAPKPEKKDGVSFCAEH [K27H],-0.094 ± 0.11
11,CAFTHRPCSHPRLEGQEFCIKHILEDINAPFKQCSYISTKNGKRCPNAAPKPEKKDGVSFCAEH [K27I],-0.091 ± 0.063
12,CAFTHRPCSHPRLEGQEFCIKHILEDLNAPFKQCSYISTKNGKRCPNAAPKPEKKDGVSFCAEH [K27L],-0.158 ± 0.041
13,CAFTHRPCSHPRLEGQEFCIKHILEDMNAPFKQCSYISTKNGKRCPNAAPKPEKKDGVSFCAEH [K27M],-0.269 ± 0.074
14,CAFTHRPCSHPRLEGQEFCIKHILEDNNAPFKQCSYISTKNGKRCPNAAPKPEKKDGVSFCAEH [K27N],-0.044 ± 0.097
15,CAFTHRPCSHPRLEGQEFCIKHILEDPNAPFKQCSYISTKNGKRCPNAAPKPEKKDGVSFCAEH [K27P],-0.091 ± 0.058
16,CAFTHRPCSHPRLEGQEFCIKHILEDQNAPFKQCSYISTKNGKRCPNAAPKPEKKDGVSFCAEH [K27Q],-0.149 ± 0.095
17,CAFTHRPCSHPRLEGQEFCIKHILEDRNAPFKQCSYISTKNGKRCPNAAPKPEKKDGVSFCAEH [K27R],-0.12 ± 0.057
18,CAFTHRPCSHPRLEGQEFCIKHILEDSNAPFKQCSYISTKNGKRCPNAAPKPEKKDGVSFCAEH [K27S],-0.093 ± 0.049
19,CAFTHRPCSHPRLEGQEFCIKHILEDVNAPFKQCSYISTKNGKRCPNAAPKPEKKDGVSFCAEH [K27V],-0.104 ± 0.062
20,CAFTHRPCSHPRLEGQEFCIKHILEDWNAPFKQCSYISTKNGKRCPNAAPKPEKKDGVSFCAEH [K27W],-0.215 ± 0.085
21,CAFTHRPCSHPRLEGQEFCIKHILEDYNAPFKQCSYISTKNGKRCPNAAPKPEKKDGVSFCAEH [K27Y],-0.202 ± 0.067

# From the Human Domainome abundance scans (Beltran et al. 2025)
